Reference: the Human Domainome abundance scans (Beltran et al. 2025)
± gives the uncertainty stated by the source.

B1: Homeobox protein cut-like 1, residues 548 to 629; numbered along this chain, P39880 (parent)
chain: GEEMDTAEIARQVKEQLIKHNIGQRIFGHYVLGLSQGSVSEILARPKPWNKLTVRGKEPFHKMKQFLSDEQNILALRSIQGR

Variants of: B1
Assay: abundance fitness (aPCA) (normalised: wild type 0, dead -1); higher = more abundant; growth selection in yeast, the domain comes from the species named
Settings: Homo sapiens

Variant | abundance fitness
GEEMDTAEIARQVKEQLIKHNIGQRIFGHYVLGLSQGSVSEILARPKPWNKFTVRGKEPFHKMKQFLSDEQNILALRSIQGR [L52F] | -0.915 ± 0.14
GEEMDTAEIARQVKEQLIKHNIGQRIFGHYVLGLSQGSVSEILARPKPWNKHTVRGKEPFHKMKQFLSDEQNILALRSIQGR [L52H] | -1.02 ± 0.16
GEEMDTAEIARQVKEQLIKHNIGQRIFGHYVLGLSQGSVSEILARPKPWNKQTVRGKEPFHKMKQFLSDEQNILALRSIQGR [L52Q] | -0.825 ± 0.11
GEEMDTAEIARQVKEQLIKHNIGQRIFGHYVLGLSQGSVSEILARPKPWNKYTVRGKEPFHKMKQFLSDEQNILALRSIQGR [L52Y] | -0.602 ± 0.078
GEEMDTAEIARQVKEQLIKHNIGQRIFGHYVLGLSQGSVSEILARPKPWNKCTVRGKEPFHKMKQFLSDEQNILALRSIQGR [L52C] | -0.484 ± 0.065
GEEMDTAEIARQVKEQLIKHNIGQRIFGHYVLGLSQGSVSEILARPKPWNKRTVRGKEPFHKMKQFLSDEQNILALRSIQGR [L52R] | -1.1 ± 0.097
GEEMDTAEIARQVKEQLIKHNIGQRIFGHYVLGLSQGSVSEILARPKPWNKPTVRGKEPFHKMKQFLSDEQNILALRSIQGR [L52P] | -0.97 ± 0.14
GEEMDTAEIARQVKEQLIKHNIGQRIFGHYVLGLSQGSVSEILARPKPWNKNTVRGKEPFHKMKQFLSDEQNILALRSIQGR [L52N] | -1.1 ± 0.29
GEEMDTAEIARQVKEQLIKHNIGQRIFGHYVLGLSQGSVSEILARPKPWNKATVRGKEPFHKMKQFLSDEQNILALRSIQGR [L52A] | -1.04 ± 0.12
GEEMDTAEIARQVKEQLIKHNIGQRIFGHYVLGLSQGSVSEILARPKPWNKTTVRGKEPFHKMKQFLSDEQNILALRSIQGR [L52T] | -0.99 ± 0.2
GEEMDTAEIARQVKEQLIKHNIGQRIFGHYVLGLSQGSVSEILARPKPWNKETVRGKEPFHKMKQFLSDEQNILALRSIQGR [L52E] | -1.02 ± 0.15
GEEMDTAEIARQVKEQLIKHNIGQRIFGHYVLGLSQGSVSEILARPKPWNKDTVRGKEPFHKMKQFLSDEQNILALRSIQGR [L52D] | -1.17 ± 0.23
GEEMDTAEIARQVKEQLIKHNIGQRIFGHYVLGLSQGSVSEILARPKPWNKKTVRGKEPFHKMKQFLSDEQNILALRSIQGR [L52K] | -1.13 ± 0.24
GEEMDTAEIARQVKEQLIKHNIGQRIFGHYVLGLSQGSVSEILARPKPWNKSTVRGKEPFHKMKQFLSDEQNILALRSIQGR [L52S] | -0.97 ± 0.082
GEEMDTAEIARQVKEQLIKHNIGQRIFGHYVLGLSQGSVSEILARPKPWNKVTVRGKEPFHKMKQFLSDEQNILALRSIQGR [L52V] | -0.879 ± 0.07
GEEMDTAEIARQVKEQLIKHNIGQRIFGHYVLGLSQGSVSEILARPKPWNKITVRGKEPFHKMKQFLSDEQNILALRSIQGR [L52I] | -0.538 ± 0.13
GEEMDTAEIARQVKEQLIKHNIGQRIFGHYVLGLSQGSVSEILARPKPWNKLPVRGKEPFHKMKQFLSDEQNILALRSIQGR [T53P] | -0.254 ± 0.046

Variant | abundance fitness
GEEMDTAEIARQVKEQLIKHNIGQRIFGHYVLGLSQGSVSEILARPKPWNKLMVRGKEPFHKMKQFLSDEQNILALRSIQGR [T53M] | -0.45 ± 0.059
GEEMDTAEIARQVKEQLIKHNIGQRIFGHYVLGLSQGSVSEILARPKPWNKLVVRGKEPFHKMKQFLSDEQNILALRSIQGR [T53V] | -0.671 ± 0.059
GEEMDTAEIARQVKEQLIKHNIGQRIFGHYVLGLSQGSVSEILARPKPWNKLIVRGKEPFHKMKQFLSDEQNILALRSIQGR [T53I] | -0.521 ± 0.069
GEEMDTAEIARQVKEQLIKHNIGQRIFGHYVLGLSQGSVSEILARPKPWNKLEVRGKEPFHKMKQFLSDEQNILALRSIQGR [T53E] | -0.251 ± 0.059
GEEMDTAEIARQVKEQLIKHNIGQRIFGHYVLGLSQGSVSEILARPKPWNKLKVRGKEPFHKMKQFLSDEQNILALRSIQGR [T53K] | -0.686 ± 0.096
GEEMDTAEIARQVKEQLIKHNIGQRIFGHYVLGLSQGSVSEILARPKPWNKLSVRGKEPFHKMKQFLSDEQNILALRSIQGR [T53S] | 0.049 ± 0.033
GEEMDTAEIARQVKEQLIKHNIGQRIFGHYVLGLSQGSVSEILARPKPWNKLRVRGKEPFHKMKQFLSDEQNILALRSIQGR [T53R] | -0.767 ± 0.064
GEEMDTAEIARQVKEQLIKHNIGQRIFGHYVLGLSQGSVSEILARPKPWNKLNVRGKEPFHKMKQFLSDEQNILALRSIQGR [T53N] | -0.077 ± 0.047
GEEMDTAEIARQVKEQLIKHNIGQRIFGHYVLGLSQGSVSEILARPKPWNKLGVRGKEPFHKMKQFLSDEQNILALRSIQGR [T53G] | -0.032 ± 0.046
GEEMDTAEIARQVKEQLIKHNIGQRIFGHYVLGLSQGSVSEILARPKPWNKLFVRGKEPFHKMKQFLSDEQNILALRSIQGR [T53F] | -0.55 ± 0.069
GEEMDTAEIARQVKEQLIKHNIGQRIFGHYVLGLSQGSVSEILARPKPWNKLQVRGKEPFHKMKQFLSDEQNILALRSIQGR [T53Q] | -0.369 ± 0.064
GEEMDTAEIARQVKEQLIKHNIGQRIFGHYVLGLSQGSVSEILARPKPWNKLHVRGKEPFHKMKQFLSDEQNILALRSIQGR [T53H] | -0.432 ± 0.062
GEEMDTAEIARQVKEQLIKHNIGQRIFGHYVLGLSQGSVSEILARPKPWNKLAVRGKEPFHKMKQFLSDEQNILALRSIQGR [T53A] | -0.341 ± 0.049
GEEMDTAEIARQVKEQLIKHNIGQRIFGHYVLGLSQGSVSEILARPKPWNKLDVRGKEPFHKMKQFLSDEQNILALRSIQGR [T53D] | 0.116 ± 0.054
GEEMDTAEIARQVKEQLIKHNIGQRIFGHYVLGLSQGSVSEILARPKPVNKLTVRGKEPFHKMKQFLSDEQNILALRSIQGR [W49V] | -0.529 ± 0.14
GEEMDTAEIARQVKEQLIKHNIGQRIFGHYVLGLSQGSVSEILARPKPWNYLTVRGKEPFHKMKQFLSDEQNILALRSIQGR [K51Y] | -0.195 ± 0.073
